In US20230062308A1, “TREATMENT OF CK8 POSITIVE CANCERS IN RELATION WITH K-RAS GENE STATUS” (INTERNATIONAL - DRUG - DEVELOPMENT - BIOTECH, priority 2017, published 2023):

Legend:
CK8 [1] = target: T1, CK8 (Homo sapiens, UniProt P05787); assay: Immunohistochemistry staining on Pancreas PDX xenograft models; type: binding; parameters: from tissue; host or cells: pancreatic cancer PDX tumour tissue (PAN-001, PAN-003, PAN-004, PAN-035); details: for HZMR022/D-A10 IHC score: score according to membranous and cytoplasmic intensity
T1 sequence (P05787 1-483): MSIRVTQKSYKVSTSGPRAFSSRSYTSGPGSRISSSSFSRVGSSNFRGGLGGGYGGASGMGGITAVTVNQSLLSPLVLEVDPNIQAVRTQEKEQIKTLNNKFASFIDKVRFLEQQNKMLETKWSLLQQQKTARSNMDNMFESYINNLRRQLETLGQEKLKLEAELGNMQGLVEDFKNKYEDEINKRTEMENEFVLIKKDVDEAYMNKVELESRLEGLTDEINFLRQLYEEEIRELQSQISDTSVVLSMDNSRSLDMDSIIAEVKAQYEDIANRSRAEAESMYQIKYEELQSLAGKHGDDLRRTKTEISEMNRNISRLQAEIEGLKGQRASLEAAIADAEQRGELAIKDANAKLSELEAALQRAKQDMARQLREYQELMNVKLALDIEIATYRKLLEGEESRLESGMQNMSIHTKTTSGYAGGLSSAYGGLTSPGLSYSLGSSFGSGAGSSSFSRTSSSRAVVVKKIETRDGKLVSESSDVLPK
Procedure: (§1) This example describes methods to investigate on CK8 cellular expression at the cell surface by Immunohistochemistry. The antigen retrieval (AR) was performed following incubation at 95° C. during 30 min in Sodium Citrate (pH6.0). The MAb anti CK8 was incubated 1 hour at room temperature (RT). The secondary antibody as a goat anti human was incubated at RT during 1 hour then with a rabbit polyclonal anti FITC at RT during 30 min.
Four PC PDX models were evaluated as PAN-001, PAN-003, PAN-004 and PAN-035.
All of PC PDX models expressed the HzR022 (D-A10) epitope detected by IHC. The IHC score was determined according the membranous and cytoplasmic intensity.

CK8 [2] = target: T1, CK8; assay: Immunohistochemistry staining on Colorectal PDX xenograft models; type: binding; parameters: from tissue; host or cells: pancreatic cancer PDX tumour tissue (PAN-001, PAN-003, PAN-004, PAN-035); key: 2+ for strong; 1+ for moderate intensity IHC staining
Procedure: as §1
All of CRC PDX models expressed the HzR022 (D-A10) epitope detected by IHC. Different IHC scores were observed as 2+ for strong or 1+ for moderate intensity IHC staining.

Cytoplasmic Intensity (CK8 [1]; PC PDX model PAN-001): 4
Membraneous Intensity (CK8 [1]; PC PDX model PAN-001): 4
HZMR022/D-A10 IHC score (CK8 [1]; PC PDX model PAN-001): 16
Cytoplasmic Intensity (CK8 [1]; PC PDX model PAN-003): 4
Membraneous Intensity (CK8 [1]; PC PDX model PAN-003): 4
HZMR022/D-A10 IHC score (CK8 [1]; PC PDX model PAN-003): 16
Cytoplasmic Intensity (CK8 [1]; PC PDX model PAN-004): 4
Membraneous Intensity (CK8 [1]; PC PDX model PAN-004): 4
HZMR022/D-A10 IHC score (CK8 [1]; PC PDX model PAN-004): 16
Cytoplasmic Intensity (CK8 [1]; PC PDX model PAN-035): 4
Membraneous Intensity (CK8 [1]; PC PDX model PAN-035): 4
HZMR022/D-A10 IHC score (CK8 [1]; PC PDX model PAN-035): 16
IHC score (CK8 [1]; all four PC PDX models (PAN-001, PAN-003, PAN-004, PAN-035), strong to very strong IHC staining): 4
HzR022 (D-A10) IHC score (CK8 [2]; CRC PDX model CR0004): 2+
HzR022 (D-A10) IHC score (CK8 [2]; CRC PDX model CR0012): 2+
HzR022 (D-A10) IHC score (CK8 [2]; CRC PDX model CR0029): 2+
HzR022 (D-A10) IHC score (CK8 [2]; CRC PDX model CR0126): 2+
HzR022 (D-A10) IHC score (CK8 [2]; CRC PDX model CR0196): 2+
HzR022 (D-A10) IHC score (CK8 [2]; CRC PDX model CR0205): 1+
HzR022 (D-A10) IHC score (CK8 [2]; CRC PDX model CR0455): 1+
HzR022 (D-A10) IHC score (CK8 [2]; CRC PDX model CR1530): 2+
HzR022 (D-A10) IHC score (CK8 [2]; CRC PDX model CR3056): 1+
HzR022 (D-A10) IHC score (CK8 [2]; CRC PDX model CR3150): 1+
HzR022 (D-A10) IHC score (CK8 [2]; CRC PDX model CR6254): 2+
B1: HzR022 (D-A10): humanized anti-CK8 monoclonal antibody D-A10; VL SEQ ID NO: 14, VH SEQ ID NO: 15 (antibody, V domains shown)
VH: EVQLVESGGGLVQPGGSLRLSCAASGFTFSSYWMSWVRQAPGKGLVWVSDINSDGSSTKYADSVKGRFTISRDNAKNTLYLQMNSLRAEDTAVYYCIAHYSGGGFAYWGQGTLVTVSS
VL: DIVMTQAPLSLPVTPGEPASISCRSSKSLLYSNGYNYLYWFLQKPGQSPQLLIYYMSNLASGVPDRFSGSGSGTDFTLKISRVEAEDVGVYYCMQSLEYPFTFGQGTKLEIK
modifications: VHHzD-A10; VLHzD-A10
